Key:
[1] = molecular target: T1, human BTLA ECD-his (monomeric human BTLA-his) (human, UniProt Q7Z6A9 31-157); test: SPR (Biacore T200), antibody captured on anti-human IgG chip, monomeric BTLA-his flowed at 60, 20, 6.7 and 2.2 nM, 1:1 binding model, 25 C [upper right panel (Hu BTLA]
T1 construct: extracellular domain; also called human BTLA extracellular domain
T1 sequence (looked up): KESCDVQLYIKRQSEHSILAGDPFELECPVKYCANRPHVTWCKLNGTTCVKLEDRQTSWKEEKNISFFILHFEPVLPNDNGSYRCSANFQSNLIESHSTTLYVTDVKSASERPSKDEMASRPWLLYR
Procedure: Surface plasmon resonance (SPR) analyses were carried out using a Biacore T200 (GE Healthcare Life Sciences). Kinetic constants were determined using a 1:1 binding model in the Biacore T200 Evaluation Software to calculate on- and off-rates (kₐ and kd, respectively), and dissociation constants as a measure of overall affinity (KD). Anti-human IgG (GE Healthcare Life Sciences) was immobilized on a CMS chip using EDC-activated amine coupling chemistry (420 seconds contact at a flow rate of 10 μl/min). Antibodies (APE10585.04 6G3 IgG1 and APE10840.05 6G3 IgG4), each at 0.5 μg/m1) were captured in a 60 second contact with the flow cell using a flow rate of 10 μl/min. Monomeric human BTLA-his or cynomolgus monkey BTLA-his at 60 nM, 20 nM, 6.7 nM and 2.2 nM concentrations was flowed over captured antibody (480 seconds association, 1800 seconds dissociation). Runs were at 25° C. and used buffer containing 10 mM HEPES, pH 7.6, 150 mM NaCl, 3 mM EDTA, 0.05% polysorbate 20 (HBS-EP+, pH 7.6; Teknova) for the mobile phase and all dilutions. At the end of each cycle, bound antigen was removed by regeneration with two successive exposures (60 seconds and 90 seconds) to 3 M MgCl2 (30 μl/min). Sensorgrams and binding constants corresponding to the experiment are shown in FIG. 1 (human BTLA) and FIG. 1 (cynomolgus monkey BTLA). Antibody capture levels in resonance units (RU) are listed at the right side of each panel.

[2] = molecular target: β-galactosidase enzyme donor (ED)-tagged human BTLA on Jurkat cells (human, UniProt Q7Z6A9 31-289); test: cell-based or functional assay
[3] = molecular target: T2, cynomolgus monkey BTLA on cells (stably transfected 293c18 clone 1G5); cynomolgus peripheral blood T and B … (cynomolgus monkey, UniProt A0A2K5W7M7 31-289); test: flow cytometry on cynomolgus monkey BTLA 293c18 cells, anti-human kappa-PE detection; both lots (APE10840.03 and APE10840.04); cynomolgus BTLA 293c18 cells
T2 construct: whole, on cells; also called cynomolgus monkey BTLA 293c18 cells
T2 sequence: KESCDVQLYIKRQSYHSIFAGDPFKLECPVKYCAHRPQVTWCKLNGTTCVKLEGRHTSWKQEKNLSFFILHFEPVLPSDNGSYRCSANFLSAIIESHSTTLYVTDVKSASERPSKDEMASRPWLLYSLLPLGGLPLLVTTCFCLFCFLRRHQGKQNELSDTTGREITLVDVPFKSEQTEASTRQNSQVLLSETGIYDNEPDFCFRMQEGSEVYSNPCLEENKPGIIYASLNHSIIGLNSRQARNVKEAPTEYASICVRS
Procedure: 293c18 cell clone 1E4 stably expressing human BTLA construct or clone 1G5 stably expressing cynomolgus monkey BTLA were harvested with Accutase solution (Millipore Sigma/Sigma-Aldrich) and washed once with Phosphate-Buffered Saline, 1% BSA. 293c18 cynomolgus monkey BTLA cells were loaded with the lipophilic carbocyanine dye, DiD (2 μM, 1,1′-dioctadecyl-3,3,3′,3′-tetramenthylindodicarbocyanine; ThermoFisher Scientific) by rocking gently for 10 minutes at room temperature. DiD-stained cells were washed in PBS, 1% BSA and equal amounts of human BTLA 293c18 cells and cynomolgus monkey BTLA 293c18-DiD-stained cells were mixed. Cells (2×10⁵ total cells/sample) were incubated with the indicated concentrations of purified 6G3 IgG4 (two production lots, APE10840.03 and APE10840.04 (H Chain SEQ ID NO: 144, L Chain SEQ ID NO: 174)) or human IgG4 isotype control antibody specific for hen egg lysozyme with gentle shaking for 10 minutes at 4° C. in FACS buffer (PBS, 1% BSA, 0.02% sodium azide). […] Cells were washed and resuspended in FACS buffer and analyzed for fluorescence on a BD FACSArray (BD Biosciences). DiD stained cells expressing cynomolgus monkey BTLA (FIG. 3) were analyzed for median fluorescence intensity (MFI) separately from cells expressing human BTLA (FIG. 3). […]

Kd [1]: 5.35 nM | koff [1]: 0.0003 s⁻¹ | kon [1]: 56200 M⁻¹ s⁻¹ | EC50, SHP2 recruitment PathHunter Jurkat BTLA signaling assay with U-2 OS hFcγRIa cells [2]: 0.0093 µg/mL | EC50, SHP2 recruitment PathHunter Jurkat BTLA signaling assay, soluble antibody [2]: 0.125 µg/mL | fold increase of agonist potency with cell-associated FcγRIa against the assay without FcγRIa [2]: ~13 fold | EC50 [3]: ~2.3 nM
B1: 6G3 IgG4 anti-BTLA antibody (APE10840 / APE12839 / APE13308) (antibody, V domains shown)
VH: QVQLVQSGAEVKKPGSSVKVSCKASGYVFSTSWMNWVRQAPGQGLEWMGRIYPGDADTNYVGKFKGRVTITADKSTTTAYMELSSLRSEDTAVYFCAKSGTFNFGNYRWYFDVWGKGTTVTVSS
VL: AIQLTQSPSSLSASVGDRVTITCRVSENIYSHLAWYQQKPGKAPKLLIYAATNLALGVPSRFSGSGSGTDYTLTISSLQPEDFATYYCQLFWGPPLTFGGGTKVEIKR
notes: Humanized antibody from a mouse hybridoma, tested as human IgG4 (detected with anti-human kappa); Some assays used labelled lots (DyLight 650, AF647, biotin, DyL488); also called 6G3 antibody; APE10840.03
